Test results reported in patent US20260167699A1 (Chugai, published 2026).

T1: FcγRIIa(R) extracellular domain with C-terminal His tag (human, UniProt P12318 34-217)
T1 construct: extracellular domain; R131 allotype; also called 2aR; CD32
T1 sequence: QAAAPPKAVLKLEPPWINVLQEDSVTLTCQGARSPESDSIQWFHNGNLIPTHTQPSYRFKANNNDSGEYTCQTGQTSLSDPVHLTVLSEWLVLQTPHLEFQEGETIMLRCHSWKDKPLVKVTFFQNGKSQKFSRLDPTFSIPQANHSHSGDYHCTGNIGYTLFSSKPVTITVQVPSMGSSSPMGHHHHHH

T2: FcγRIIa(H) extracellular domain with C-terminal His tag (human, UniProt P12318 34-217)
T2 construct: extracellular domain; H131 allotype; also called 2aH; CD32
T2 sequence: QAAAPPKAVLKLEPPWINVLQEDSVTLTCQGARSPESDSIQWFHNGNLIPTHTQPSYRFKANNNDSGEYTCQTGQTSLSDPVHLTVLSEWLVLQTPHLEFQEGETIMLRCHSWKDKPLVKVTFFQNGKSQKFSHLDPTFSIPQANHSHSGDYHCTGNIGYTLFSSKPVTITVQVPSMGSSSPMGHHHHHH

T3: FcγRIIb extracellular domain with C-terminal His tag (human, UniProt P31994 43-217)
T3 construct: extracellular domain; also called 2b; CD32
T3 sequence: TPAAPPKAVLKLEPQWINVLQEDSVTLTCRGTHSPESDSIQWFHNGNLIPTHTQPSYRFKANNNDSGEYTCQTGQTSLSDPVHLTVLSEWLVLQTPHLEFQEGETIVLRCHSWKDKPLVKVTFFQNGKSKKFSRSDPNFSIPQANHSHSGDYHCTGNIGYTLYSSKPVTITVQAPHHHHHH


Key:
Assay in all cases: SPR; % of GpH7-A5/GpH7-B3/GpL16-k0
[1] = biological target: T4, FcγRIa extracellular domain with C-terminal His tag (human, UniProt P12314 16-292)
T4 construct: extracellular domain; also called 1a; CD64
T4 sequence (P12314 other isoform, or with tags, fused parts or gaps): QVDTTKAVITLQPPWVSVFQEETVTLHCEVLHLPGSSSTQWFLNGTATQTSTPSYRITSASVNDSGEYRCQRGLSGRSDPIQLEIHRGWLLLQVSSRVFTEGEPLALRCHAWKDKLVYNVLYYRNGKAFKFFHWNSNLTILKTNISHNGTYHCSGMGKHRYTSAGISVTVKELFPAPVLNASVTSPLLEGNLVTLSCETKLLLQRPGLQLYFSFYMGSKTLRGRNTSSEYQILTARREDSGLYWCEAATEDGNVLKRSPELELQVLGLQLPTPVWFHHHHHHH

[2] = biological target: T1, FcγRIIa(R) extracellular domain with …
[3] = biological target: T2, FcγRIIa(H) extracellular domain with …
[4] = biological target: T3, FcγRIIb extracellular domain with …
[5] = biological target: T5, FcγRIIIa extracellular domain with C-terminal His tag (human, UniProt P08637 17-208)
T5 construct: extracellular domain; also called 3a; CD16
T5 sequence (P08637 other isoform, or with tags, fused parts or gaps): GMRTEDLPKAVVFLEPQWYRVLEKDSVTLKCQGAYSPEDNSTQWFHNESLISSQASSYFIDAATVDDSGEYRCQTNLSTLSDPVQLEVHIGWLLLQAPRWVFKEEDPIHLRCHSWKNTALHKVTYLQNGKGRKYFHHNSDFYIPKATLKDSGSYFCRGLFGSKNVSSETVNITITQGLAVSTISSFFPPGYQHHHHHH

Row | Binder | He/Con 1a [1] [%] | He/Con 2aR [2] [%] | He/Con 2aH [3] [%] | He/Con 2b [4] [%] | He/Con 3a [5] [%]
1 | GpH7-A5/GpH7-B3 variant I336_09D/GpL16-k0 (antibody, human IgG1, kappa, heterodimerized IgG1 (He Ab), mutation in one H chain only; also called He Ab) heavy 1: not shown heavy 2: not shown light: DIVMTQSPLSLPVTPGEPASISCQASESLVHSNRNTYLHWYLQKPGQSPQLLIYKVSNRFSGVPDRFSGSGSGTDFTLKISRVEAEDVGVYYCSQNTHVPPTFGQGTKVEIERTVAAPSVFIFPPSDEQLKSGTASVVCLLNNFYPREAKVQWKVDNALQSGNSQESVTEQDSKDSTYSLSSTLTLSKADYEKHKVYACEVTHQGLSSPVTKSFNRGEC | 107 | 104 | 100 | 101 | 102
2 | GpH7-A5/GpH7-B3 variant I336_11K/GpL16-k0 (antibody, human IgG1, kappa, heterodimerized IgG1 (He Ab), mutation in one H chain only; also called He Ab) heavy 1: not shown heavy 2: not shown light: DIVMTQSPLSLPVTPGEPASISCQASESLVHSNRNTYLHWYLQKPGQSPQLLIYKVSNRFSGVPDRFSGSGSGTDFTLKISRVEAEDVGVYYCSQNTHVPPTFGQGTKVEIERTVAAPSVFIFPPSDEQLKSGTASVVCLLNNFYPREAKVQWKVDNALQSGNSQESVTEQDSKDSTYSLSSTLTLSKADYEKHKVYACEVTHQGLSSPVTKSFNRGEC | 109 | 104 | 103 | 98.7 | 94.4
3 | GpH7-A5/GpH7-B3 variant I336_10E/GpL16-k0 (antibody, human IgG1, kappa, heterodimerized IgG1 (He Ab), mutation in one H chain only; also called He Ab) heavy 1: not shown heavy 2: not shown light: DIVMTQSPLSLPVTPGEPASISCQASESLVHSNRNTYLHWYLQKPGQSPQLLIYKVSNRFSGVPDRFSGSGSGTDFTLKISRVEAEDVGVYYCSQNTHVPPTFGQGTKVEIERTVAAPSVFIFPPSDEQLKSGTASVVCLLNNFYPREAKVQWKVDNALQSGNSQESVTEQDSKDSTYSLSSTLTLSKADYEKHKVYACEVTHQGLSSPVTKSFNRGEC | 111 | 104 | 105 | 98.2 | 114
4 | GpH7-A5/GpH7-B3 variant I336_14T/GpL16-k0 (antibody, human IgG1, kappa, heterodimerized IgG1 (He Ab), mutation in one H chain only; also called He Ab) heavy 1: not shown heavy 2: not shown light: DIVMTQSPLSLPVTPGEPASISCQASESLVHSNRNTYLHWYLQKPGQSPQLLIYKVSNRFSGVPDRFSGSGSGTDFTLKISRVEAEDVGVYYCSQNTHVPPTFGQGTKVEIERTVAAPSVFIFPPSDEQLKSGTASVVCLLNNFYPREAKVQWKVDNALQSGNSQESVTEQDSKDSTYSLSSTLTLSKADYEKHKVYACEVTHQGLSSPVTKSFNRGEC | 108 | 102 | 103 | 97.8 | 103
5 | GpH7-A5/GpH7-B3 variant I336_12R/GpL16-k0 (antibody, human IgG1, kappa, heterodimerized IgG1 (He Ab), mutation in one H chain only; also called He Ab) heavy 1: not shown heavy 2: not shown light: DIVMTQSPLSLPVTPGEPASISCQASESLVHSNRNTYLHWYLQKPGQSPQLLIYKVSNRFSGVPDRFSGSGSGTDFTLKISRVEAEDVGVYYCSQNTHVPPTFGQGTKVEIERTVAAPSVFIFPPSDEQLKSGTASVVCLLNNFYPREAKVQWKVDNALQSGNSQESVTEQDSKDSTYSLSSTLTLSKADYEKHKVYACEVTHQGLSSPVTKSFNRGEC | 105 | 104 | 104 | 101 | 88.8
6 | GpH7-A5/GpH7-B3 variant I336_13S/GpL16-k0 (antibody, human IgG1, kappa, heterodimerized IgG1 (He Ab), mutation in one H chain only; also called He Ab) heavy 1: not shown heavy 2: not shown light: DIVMTQSPLSLPVTPGEPASISCQASESLVHSNRNTYLHWYLQKPGQSPQLLIYKVSNRFSGVPDRFSGSGSGTDFTLKISRVEAEDVGVYYCSQNTHVPPTFGQGTKVEIERTVAAPSVFIFPPSDEQLKSGTASVVCLLNNFYPREAKVQWKVDNALQSGNSQESVTEQDSKDSTYSLSSTLTLSKADYEKHKVYACEVTHQGLSSPVTKSFNRGEC | 106 | 97.4 | 101 | 91.5 | 97.1

Results, then the binder that gave them:

Row | He/Con 1a [1] [%] | He/Con 2aR [2] [%] | He/Con 2aH [3] [%] | He/Con 2b [4] [%] | He/Con 3a [5] [%] | Binder
7 | 107 | 70.9 | 76.4 | 63.6 | 88.4 | GpH7-A5/GpH7-B3 variant I336_19Q/GpL16-k0 (antibody, human IgG1, kappa, heterodimerized IgG1 (He Ab), mutation in one H chain only; also called He Ab) heavy 1: not shown heavy 2: not shown light: DIVMTQSPLSLPVTPGEPASISCQASESLVHSNRNTYLHWYLQKPGQSPQLLIYKVSNRFSGVPDRFSGSGSGTDFTLKISRVEAEDVGVYYCSQNTHVPPTFGQGTKVEIERTVAAPSVFIFPPSDEQLKSGTASVVCLLNNFYPREAKVQWKVDNALQSGNSQESVTEQDSKDSTYSLSSTLTLSKADYEKHKVYACEVTHQGLSSPVTKSFNRGEC
8 | 99.1 | 160 | 126 | 161 | 154 | GpH7-A5/GpH7-B3 variant K334_03V/GpL16-k0 (antibody, human IgG1, kappa, heterodimerized IgG1 (He Ab), mutation in one H chain only; also called He Ab) heavy 1: not shown heavy 2: not shown light: DIVMTQSPLSLPVTPGEPASISCQASESLVHSNRNTYLHWYLQKPGQSPQLLIYKVSNRFSGVPDRFSGSGSGTDFTLKISRVEAEDVGVYYCSQNTHVPPTFGQGTKVEIERTVAAPSVFIFPPSDEQLKSGTASVVCLLNNFYPREAKVQWKVDNALQSGNSQESVTEQDSKDSTYSLSSTLTLSKADYEKHKVYACEVTHQGLSSPVTKSFNRGEC
9 | 104 | 99.1 | 97.4 | 93.8 | 92.8 | GpH7-A5/GpH7-B3 variant I336_16H/GpL16-k0 (antibody, human IgG1, kappa, heterodimerized IgG1 (He Ab), mutation in one H chain only; also called He Ab) heavy 1: not shown heavy 2: not shown light: DIVMTQSPLSLPVTPGEPASISCQASESLVHSNRNTYLHWYLQKPGQSPQLLIYKVSNRFSGVPDRFSGSGSGTDFTLKISRVEAEDVGVYYCSQNTHVPPTFGQGTKVEIERTVAAPSVFIFPPSDEQLKSGTASVVCLLNNFYPREAKVQWKVDNALQSGNSQESVTEQDSKDSTYSLSSTLTLSKADYEKHKVYACEVTHQGLSSPVTKSFNRGEC
10 | 100 | 143 | 111 | 139 | 152 | GpH7-A5/GpH7-B3 variant K334_02A/GpL16-k0 (antibody, human IgG1, kappa, heterodimerized IgG1 (He Ab), mutation in one H chain only; also called He Ab) heavy 1: not shown heavy 2: not shown light: DIVMTQSPLSLPVTPGEPASISCQASESLVHSNRNTYLHWYLQKPGQSPQLLIYKVSNRFSGVPDRFSGSGSGTDFTLKISRVEAEDVGVYYCSQNTHVPPTFGQGTKVEIERTVAAPSVFIFPPSDEQLKSGTASVVCLLNNFYPREAKVQWKVDNALQSGNSQESVTEQDSKDSTYSLSSTLTLSKADYEKHKVYACEVTHQGLSSPVTKSFNRGEC
11 | 98 | 127 | 92.5 | 119 | 125 | GpH7-A5/GpH7-B3 variant K334_01G/GpL16-k0 (antibody, human IgG1, kappa, heterodimerized IgG1 (He Ab), mutation in one H chain only; also called He Ab) heavy 1: not shown heavy 2: not shown light: DIVMTQSPLSLPVTPGEPASISCQASESLVHSNRNTYLHWYLQKPGQSPQLLIYKVSNRFSGVPDRFSGSGSGTDFTLKISRVEAEDVGVYYCSQNTHVPPTFGQGTKVEIERTVAAPSVFIFPPSDEQLKSGTASVVCLLNNFYPREAKVQWKVDNALQSGNSQESVTEQDSKDSTYSLSSTLTLSKADYEKHKVYACEVTHQGLSSPVTKSFNRGEC
12 | 106 | 83.1 | 84.6 | 74.5 | 83.4 | GpH7-A5/GpH7-B3 variant I336_15Y/GpL16-k0 (antibody, human IgG1, kappa, heterodimerized IgG1 (He Ab), mutation in one H chain only; also called He Ab) heavy 1: not shown heavy 2: not shown light: DIVMTQSPLSLPVTPGEPASISCQASESLVHSNRNTYLHWYLQKPGQSPQLLIYKVSNRFSGVPDRFSGSGSGTDFTLKISRVEAEDVGVYYCSQNTHVPPTFGQGTKVEIERTVAAPSVFIFPPSDEQLKSGTASVVCLLNNFYPREAKVQWKVDNALQSGNSQESVTEQDSKDSTYSLSSTLTLSKADYEKHKVYACEVTHQGLSSPVTKSFNRGEC
13 | 111 | 110 | 107 | 107 | 99.4 | GpH7-A5/GpH7-B3 variant I336_18N/GpL16-k0 (antibody, human IgG1, kappa, heterodimerized IgG1 (He Ab), mutation in one H chain only; also called He Ab) heavy 1: not shown heavy 2: not shown light: DIVMTQSPLSLPVTPGEPASISCQASESLVHSNRNTYLHWYLQKPGQSPQLLIYKVSNRFSGVPDRFSGSGSGTDFTLKISRVEAEDVGVYYCSQNTHVPPTFGQGTKVEIERTVAAPSVFIFPPSDEQLKSGTASVVCLLNNFYPREAKVQWKVDNALQSGNSQESVTEQDSKDSTYSLSSTLTLSKADYEKHKVYACEVTHQGLSSPVTKSFNRGEC
